Data from publication PMC11798926.

B1: myc-tagged SynDIG4 (wild type) [rat] / HA-tagged μ2 AP subunit [not stated] (parent)
chain 1: MSSEKSGLPDSVPHTSPPPYNAPQPPAEPPIPPPQTAPSSHHHHHHHYHQSGTATLPRLGAGGLASAAAGAQRGPSSSATLPRPPHHAPPGPAAGAPPPGCATLPRMPPDPYLQETRFEGPLPPPPPAAAAPPPPAPAPTAQAPGFVVPTHAGAVGTLPLGGYVAPGYPLQLQPCTAYVPVYPVGTPYASGTPGGPGVTSTLPPPPQGPGLALLEPRRPPHDYMPIAVLTTICCFWPTGIIAIFKAVQVRTALARGDLVSAEIASREARNFSFISLAVGIAAMVLCTILTVVIIIAAQHHENYWDP
chain 2: MIGGLFIYNHKGEVLISRVYRDDIGRNAVDAFRVNVIHARQQVRSPVTNIARTSFFHVKRSNIWLAAVTKQNVNAAMVFEFLYKMCDVMAAYFGKISEENIKNNFVLIYELLDEILDFGYPQNSETGALKTFITQQGIKSQHQTKEEQSQITSQVTGQIGWRREGIKYRRNELFLDVLESVNLLMSPQGQVLSAHVSGRVVMKSYLSGMPECKFGMNDKIVIEKQGKGTADETSKSGKQSIAIDDCTFHQCVRLSKFDSERSISFIPPDGEFELMRYRTTKDIILPFRVIPLVREVGRTKLEVKVVIKSNFKPSLLAQKIEVRIPTPLNTSGVQVICMKGKAKYKASENAIVWKIKRMAGMKESQISAEIELLPTNDKKKWARPPISMNFEVPFAPSGLKVRYLKVFEPKLNYSDHDVIKWVRYIGRSGIYETRC

Variants of: B1
Assay: co-immunoprecipitation (IP: HA, blot: myc), quantified
Conditions: with HA-tagged μ2 AP subunit; HEK293T cells; first bar chart of panel D (SD4 vs AVPA); parent: 100; read off a plot

Row | percent of parent | Variant
1 | 45 %SD4 | chain 1 Y178A V181A

Same assay, conditions: with HA-tagged μ2 AP subunit; HEK293T cells; third bar chart of panel D (SD4 vs AVPA vs ∆170-89); marked ns; parent: 100; read off a plot

Row | percent of parent | Variant
2 | 55 %SD4 | chain 1 Y178A V181A
